Usually stoichiometry N stands for the number of molecules, sites or subunits per partner or assembly.

For the test, the target named is T1, human Kir2.1 channel, wild type (human), P63252.
T1 chain: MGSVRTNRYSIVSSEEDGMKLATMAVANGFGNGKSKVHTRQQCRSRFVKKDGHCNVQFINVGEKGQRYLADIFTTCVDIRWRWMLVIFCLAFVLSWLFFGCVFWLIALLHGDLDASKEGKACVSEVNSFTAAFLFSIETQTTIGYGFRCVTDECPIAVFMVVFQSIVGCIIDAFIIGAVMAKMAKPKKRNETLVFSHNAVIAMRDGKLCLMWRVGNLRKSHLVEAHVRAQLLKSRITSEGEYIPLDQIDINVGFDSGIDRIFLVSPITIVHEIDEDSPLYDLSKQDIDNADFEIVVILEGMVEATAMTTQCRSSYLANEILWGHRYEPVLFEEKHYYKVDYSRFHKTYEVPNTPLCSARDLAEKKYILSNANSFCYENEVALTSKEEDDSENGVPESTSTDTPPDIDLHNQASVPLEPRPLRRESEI
Kind of test: SEC. Particulars: remark: other sources report otherwise.

B1: human Kir2.1 channel, wild type, P63252 1-427 (natural protein)
chain: MGSVRTNRYSIVSSEEDGMKLATMAVANGFGNGKSKVHTRQQCRSRFVKKDGHCNVQFINVGEKGQRYLADIFTTCVDIRWRWMLVIFCLAFVLSWLFFGCVFWLIALLHGDLDASKEGKACVSEVNSFTAAFLFSIETQTTIGYGFRCVTDECPIAVFMVVFQSIVGCIIDAFIIGAVMAKMAKPKKRNETLVFSHNAVIAMRDGKLCLMWRVGNLRKSHLVEAHVRAQLLKSRITSEGEYIPLDQIDINVGFDSGIDRIFLVSPITIVHEIDEDSPLYDLSKQDIDNADFEIVVILEGMVEATAMTTQCRSSYLANEILWGHRYEPVLFEEKHYYKVDYSRFHKTYEVPNTPLCSARDLAEKKYILSNANSFCYENEVALTSKEEDDSENGVPESTSTDTPPDIDLHNQASVPLEPRPLRRESEI
Turning to B1, the stoichiometry N was 4.
